Biological target: tif1b_human TRIM28 (UniProt Q13263)
Sequence (Q13263 whole entry): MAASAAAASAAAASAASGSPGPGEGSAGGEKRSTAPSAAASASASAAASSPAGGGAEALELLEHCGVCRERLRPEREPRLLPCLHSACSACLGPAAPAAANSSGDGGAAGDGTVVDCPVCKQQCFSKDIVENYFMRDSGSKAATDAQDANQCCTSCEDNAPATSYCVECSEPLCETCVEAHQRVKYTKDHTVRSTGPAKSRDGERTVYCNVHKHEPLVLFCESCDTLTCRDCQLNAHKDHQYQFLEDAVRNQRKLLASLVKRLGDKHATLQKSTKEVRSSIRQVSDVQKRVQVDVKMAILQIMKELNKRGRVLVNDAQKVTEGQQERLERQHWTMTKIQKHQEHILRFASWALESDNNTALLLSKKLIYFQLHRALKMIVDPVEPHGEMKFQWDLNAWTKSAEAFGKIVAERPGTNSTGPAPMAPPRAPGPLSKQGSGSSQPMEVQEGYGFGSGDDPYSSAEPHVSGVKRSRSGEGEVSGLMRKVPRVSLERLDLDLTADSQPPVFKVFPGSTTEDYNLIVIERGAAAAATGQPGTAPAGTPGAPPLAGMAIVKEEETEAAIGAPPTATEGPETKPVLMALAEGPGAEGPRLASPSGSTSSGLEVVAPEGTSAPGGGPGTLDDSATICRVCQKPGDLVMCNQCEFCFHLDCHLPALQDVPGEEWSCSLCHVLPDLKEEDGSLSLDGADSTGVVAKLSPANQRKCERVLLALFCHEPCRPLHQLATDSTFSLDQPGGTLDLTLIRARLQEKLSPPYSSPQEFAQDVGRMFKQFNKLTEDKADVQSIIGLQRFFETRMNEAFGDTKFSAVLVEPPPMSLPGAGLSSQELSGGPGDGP

effect of a mutation on the interaction | Substance
decreasing interaction | Zinc finger protein 350 (Homo sapiens), Q9GZX5 D12A
decreasing interaction | Zinc finger protein 350 (Homo sapiens), Q9GZX5 V13A

Source: IntAct's records for PubMed 22975076
